Results on 1 substance are retold here after paper PMC8669763.

The target of this assay is HLA-B*51:01 (human | human (endogenous in 721.221)).

Sequence of KIR3DL1 (P43629 22-444): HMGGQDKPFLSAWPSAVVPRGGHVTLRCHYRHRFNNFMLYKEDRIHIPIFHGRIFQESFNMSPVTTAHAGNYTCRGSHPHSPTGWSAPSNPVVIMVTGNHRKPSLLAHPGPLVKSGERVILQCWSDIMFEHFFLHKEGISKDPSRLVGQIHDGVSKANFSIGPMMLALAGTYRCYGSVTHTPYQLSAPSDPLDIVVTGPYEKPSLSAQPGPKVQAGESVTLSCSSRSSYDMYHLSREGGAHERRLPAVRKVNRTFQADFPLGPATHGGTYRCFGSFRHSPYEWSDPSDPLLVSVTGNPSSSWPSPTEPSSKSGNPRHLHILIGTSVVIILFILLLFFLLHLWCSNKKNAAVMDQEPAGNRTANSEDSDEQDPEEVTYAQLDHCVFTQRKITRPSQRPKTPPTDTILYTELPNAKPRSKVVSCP

For “KIR3DL1 (from UniProt P43629 22-444) (receptor)”, the degranulation: mean frequency of CD107a+ cells in the KIR3DL1 single positive NK subset after co-culture (1:1, 3 hours) with 221-B*51:01-shERAP1 (% CD107a+ cells) stood at 25.8.
